Assay results from publication PMC8384840.

Legend:
[1] = molecular target: Lactate dehydrogenase (LDH) from rabbit muscle (rabbit) (UniProt P13491)
[2] = molecular target: Lactate dehydrogenase (LDH) from rabbit muscle (rabbit) (UniProt P13491); remark: listed apart in the source
[3] = molecular target: Lactate dehydrogenase (LDH) from rabbit muscle (rabbit) (UniProt P13491); test: SEC; 2 µM luciferase (45 °C) or LDH (55 °C) heat shocked 15 min with 20 µM HSPB1 construct, or the HSPB1 construct heat shocked alone; analysed at the start (0 h) of the disaggregation reaction; Superose 12, reaction buffer, 4 °C; fractions detected by immunoblot
[4] = molecular target: HSPB1-3D (UniProt P04792); test: as above
[5] = molecular target: Lactate dehydrogenase (LDH) from rabbit muscle (rabbit) (UniProt P13491); test: SEC; native luciferase or LDH alone; Superose 12 10/300 GL, reaction buffer, 4 °C; 1 mL fractions detected by immunoblot

HSPB1-3D (from UniProt P04792 1-205) (natural protein)
decrease of the optical density at 320 nm (light scattering) of 2 µM LDH aggregating at 55 °C with 20 µM HSPB1-3D, against LDH alone [1]: 90%

HSPB1-3D-GxG (from UniProt P04792 1-205) (natural protein)
decrease of the optical density at 320 nm (light scattering) of 2 µM LDH aggregating at 55 °C with 20 µM HSPB1-3D-GxG, against LDH alone [2]: 95% | percent of HSPB1-3D-GxG in the large molecular size fractions after heat shock with LDH [3]: 20%

Lactate dehydrogenase (LDH) from rabbit muscle
percent of total HSPB1-3D in the high molecular size fractions (7-9 mL) after heat shock with the substrate [4]: ~ 20% and 40%, respectively, of the total amount of HSPB1-3D was found in high molecular size fractions

Lactate dehydrogenase (LDH) from rabbit muscle (from UniProt P13491 1-332) (enzyme)
stoichiometry N [5]: 4
